{"source": "the DeepSol protein solubility set"}
{"assay": "soluble on expression in E. coli; label from the status in PepcDB or PDB records"}
{"sequence": "MRELGLEIPVEEVYNANSISLKDAVVHFGGGCTGEVISSEGLVLTNHHCGYGAIQQHSNVEHDYLTEGFWAMNRDAELPTPGLTVTFIDRILDVTSYVNDQLKKDEDPNGTNYLSPSYLSKVAERFAKDENIEVTPATKLELKAFYGGNKYYMFVKTVYSDIRMVGAPPSSIGKFGADTDNWMWPRHTGDFSLFRIYADKNGKPAAYSRDNVPLQVKKHLKISIAGVQEGDFTFVMGFPGRNWRYMISDEVEERMQTTNFMRQHVRGARQKVLMEQMLKDPAVRIHYASKYASSANYWKNAIGMNEGLVRLKVLDTKRKQQEELLARGREKGDDSYQKAFDEIRSIVAHRRDALYHQQALNEALVTALDFMRLPSTTEMVTALKSKNKEQIKTATENLKQAGEKYFASVPFPEVERMVAKTMLQTYASYIPEEQRINIFEIINSRFKGNIDSFVDACFEYSIFGNPKNFEKFIKKPSLYKIGHDWMVLFKYSITDGILKTAIAMKEANQNYDAAHKVWVKGMMDMRQEKGMPIYPDANSTLRLTYGQVLSYEPADGVVYDAHTTLKGVMEKEDPGNWEFVVPQKLKELYKARDYGRYGKDGEMPVCFIVNTDNTGGNSGSPVFNSKGQLVGTAFDRNYEGLTGDIAFRPSSQRAACVDIRYTLFIIDKYAGASHIIDELSIE", "soluble on expression in E. coli": "not soluble"}
{"sequence": "MRELQTLLISCLKQERISGSMFRVLGKVVNHVVCEMFKHQDIAWDGLRDYIVSQSKTKFQRAVYIFQCLTTPLEDDEFVIHVMENLLPEIRIRLNPPRDLLVDNSCWVLAFTGAFCATIHLREFPSQAESVKEIANKMIDSVRELVEIGIEVGLVRRAFRDLENIVKNLNKWNGTGS", "soluble on expression in E. coli": "soluble"}
{"sequence": "MRFSIVSLLHRLFLAGALALAAGAQAAPDPMGPPDKFVLDAATQTIDILKSDQNVKAGNLAHINQVVDAHILPFVNFQKTTRLAAGRYWRQATDTQKAELAKAFRGTLVRTYSGALTKVDNGTTIKLLPFRGDPNADDVVVRSLISQSNSQPVQVDYRLEKTPQGWRIYDMNVEGIWLIENYRNQFAQQINQNGIDGLIQALNQRNQAAALEHHHHHH", "soluble on expression in E. coli": "soluble"}
{"sequence": "MRFTKVVGFLSVLGLAAVFPLTAQAEKAGTAGAGEWDKLGTYTYTYSSPTVYSTGGDFRVCLSGSTPFSVSLHLYEDDPGDNPDDYVGANYFSPGECHTFGSIGKFVDGSNNKAEFFVTDYSGKSKTVTFYDLEHHHHHH", "soluble on expression in E. coli": "not soluble"}
{"sequence": "MRGASGGMIQCQYEVHISKNDTYSMDRPHFHEDIEIVLCIAGEGVFFLEPEVFPLYRGQLFLIDSSILHRSVANEEYRCMVFHISSEMLHEFSSLQSNFQARSKRSGLVATLTEEATKYLESLYGKLAEDFGNEFGGDIRQTITLLTFLLTCFSHFNEAEDGEVHTNPSLDKVAPILTYIQEHLGEAMTTQSIADAFYMSKYHLCHIFKEGTGFSLMDYVINCRILKARSLLRNGMRVQEVGENVGFRNNEHFIRTFKKLTGTPPKRYAMMYKDSDQNAQRELVVVEGKDGKIIEGIKA", "soluble on expression in E. coli": "not soluble"}
{"sequence": "MRGEAGELAVSSGEIATGALSPEKQQEQELMGKLAATGKLPARPASSFLQKKLQQRKFFDSGDYAMDKSKAGTGLGSKPHPLAGGPPPAAPPVVAQRSPAPAATTPSPSASPISQQTNRPSSDRNSDDDNLQIPRPDTVPQRKASIINPSVHCKLSPAPHVQHHDAASPNATSE", "soluble on expression in E. coli": "soluble"}
{"sequence": "MRGEFYQQLTNDLETARAEGLFKEERIITSAQQADITVADGSHVINFCANNYLGLANHPDLIAAAKAGMDSHGFGMASVRFICGTQDSHKELEQKLAAFLGMEDAILYSSCFDANGGLFETLLGAEDAIISDALNHASIIDGVRLCKAKRYRYANNDMQELEARLKEAREAGARHVLIATDGVFSMDGVIANLKGVCDLADKYDALVMVDDSHAVGFVGENGRGSHEYCDVMGRVDIITGTLGKALGGASGGYTAARKEVVEWLRQRSRPYLFSNSLAPAIVAASIKVLEMVEAGSELRDRLWANARQFREQMSAAGFTLAGADHAIIPVMLGDAVVAQKFARELQKEGIYVTGFFYPVVPKGQARIRTQMSAAHTPEQITRAVEAFTRIGKQLGVIA", "soluble on expression in E. coli": "soluble"}
{"sequence": "MRGIRDPRLIPIAEKVMEGKRLSFEDGLVLYQTKDLPTLMRLANLVRERKHGHKTYFVHSIRVSQTNICYVGCTFCAFQRRFGEEGAWDWDVDEVVAWVKERYQPGLTEIHLTAGHHPKRPFAYYLDLVRALKENFPGVQVKAWTAAEIHHFSKIARLPYREVLKALKEAGLDAMPGGGAEIFAERVRRKIARAKVSAEGWLEIHRTAHELGIPTNATMLYGHIETLEERLDHMDRLRRLQDETGGFMSFIPLAFQPDGNQLARELGKKEFTTGLDDLRNLAVARLYLDNFPHIKGYWATLTPELAQVSLDWGVTDVDGTLIEERIVHMAGSPTPQGLTKRELARIILMAGRIPVERDALYREVRVWDRVEA", "soluble on expression in E. coli": "soluble"}
{"sequence": "MRGSHHHHHHGSENLYFQSGAMEIREQLNLGGIVNAQNAQLSNCSDGAAQLESCGTAPDLKGITGWLNTPGNKPIDLKSLRGKVVLIDFWAYSCINCQRAIPHVVGWYQAYKDSGLAVIGVHTPEYAFEKVPGNVAKGAANLGISYPIALDNNYATWTNYRNRYWPAEYLIDATGTVRHIKFGEGDYNVTETLVRQLLNDAKPGVKLPQPSSTTTPDLTPRAALTPETYFGVGKVVNYGGGGAYDEGSAVFDYPPSLAANSFALRGRWALDYQGATSDGNDAAIKLNYHAKDVYIVVGGTGTLTVVRDGKPATLPISGPPTTHQVVAGYRLASETLEVRPSKGLQVFSFTYG", "soluble on expression in E. coli": "soluble"}
{"sequence": "MRGSHHHHHHPEYDYIRDGNAIYERSFAIIRAEADLSRFSEEEADLAVRMVHACGSVEATRQFVFSPDFVSSARAALKAGAPILCDAEMVAHGVTRARLPAGNEVICTLRDPRTPALAAEIGNTRSAAALKLWSERLAGSVVAIGNAPTALFFLLEMLRDGAPKPAAILGMPVGFVGAAESKDALAENSYGVPFAIVRGRLGGSAMTAAALNSLARPGL", "soluble on expression in E. coli": "soluble"}
{"sequence": "MRGSHHHHHHTDPALRAKPENKLPVLDLISAEMKTVVNTLQPDLPPWPATGTIAEQRQYYTLERRFWNAGAPEMATRAYMVPTKYGQVETRLFCPQPDSPATLFYLHGGGFILGNLDTHDRIMRLLASYSQCTVIGIDYTLSPEARFPQAIEEIVAACCYFHQQAEDYQINMSRIGFAGDSAGAMLALASALWLRDKQIDCGKVAGVLLWYGLYGLRDSVTRRLLGGVWDGLTQQDLQMYEEAYLSNDADRESPYYCLFNNDLTREVPPCFIAGAEFDPLLDDSRLLYQTLAAHQQPCEFKLYPGTLHAFLHYSRMMKTADEALRDGAQFFTAQLGLCGR", "soluble on expression in E. coli": "soluble"}
{"sequence": "MRGSHHHHHHTDPALRARIGIDLGGTKTEVIALGDAGEQLYRHRLPTPRDDYRQTIETIATLVDMAEQATGQRGTVGMGIPGSISPYTGVVKNANSTWLNGQPFDKDLSARLQREVRLANDANCLAVSEAVDGAAAGAQTVFAVIIGTGCGAGVAFNGRAHIGGNGTAGEWGHNPLPWMDEDELRYREEVPCYCGKQGCIETFISGTGFAMDYRRLSGHALKGSEIIRLVEESDPVAELALRRYELRLAKSLAHVVNILDPDVIVLGGGMSNVDRLYQTVGQLIKQFVFGGECETPVRKAKHGDSSGVRGAAWLWPQEGLCGR", "soluble on expression in E. coli": "soluble"}
{"sequence": "MRGSHHHHHHTDPALRAYDNLKSLGITNPEEIDRYSLRQEANNDILKIYFQKDKGEFFAKSVKFKYPRQRKTVVADGVGQGYKEVQEISPNLRYIIDELDQICQRDRSEVDLKRKILDDLRHLESVVTNKISEIEADLEKLTRKGLCGR", "soluble on expression in E. coli": "soluble"}
{"sequence": "MRGSVAALLLAAGRSIRMGRCKQLLPLGNTTVLGRCLDTLRRGGVGEIAVVVSADGEQVARAAAGHGVRVVVNPDREGDMASSVRAGRDAFGSAVGGVIVSLCDQPLVAAGTVARLRDRHATEPGRIIIPTHGGRRGHPLLFPLPVLAELEDGLTLRDLVVCDPARVCCVAVADPGILIDMDTPEDYRHVCRLMAPQEGLSLRLEHHHHHH", "soluble on expression in E. coli": "not soluble"}
{"sequence": "MRGSVPSVREIETLLSQLPWRQFQSPRVHLEQYTTPVHLAARIAHHVALCIDEDERRSVQAVDLGTGTGILALALCLAGLNHVLGVDVDSEALELARANAAALWELCPQSVGAVLEFAAVDVQPNSLALAPKSFDVAVLNPPFGTRQRSADIAFLDVACHLSRRFVYSLHKSSTRSYLSRRLERFGCTAQVYARLRFDLPATYVFHRERAVDIDVDLWQIEVKR", "soluble on expression in E. coli": "not soluble"}
{"sequence": "MRGVTPINPQKKIEADSNPVKESDYYEGERLTHLLDLIQRGIETSKLSNVNSLPEKIWLKKQIAIGINEVTRVLERMNPNNTSDQQQNPKQLQVVILVADCKPRMLTKHIPNLAASRNVPVLYVRDNKRASLRLGELVKLKTALAIGIKARGNDLNLLLKQILPRDS", "soluble on expression in E. coli": "soluble"}
{"sequence": "MRHLFASLAFMLATSTVAHAEKLTLEAITGPLPLSGPTLMKPKVAPDGSRVTFLRGKDSDRNQLDLWSYDIGSGQTRLLVDSKVVLPGTETLSDEEKARRERQRIAAMTGIVDYQWSPDAQRLLFPLGGELYLYDLKQEGKAAVRQLTHGEGFATDAKLSPKGGFVSFIRGRNLWVIDLASGRQMQLTADGSTTIGNGIAEFVADEEMDRHTGYWWAPDDSAIAYARIDESPVPVQKRYEVYADRTDVIEQRYPAAGDANVQVKLGVISPAEQAQTQWIDLGKEQDIYLARVNWRDPQHLSFQRQSRDQKKLDLVEVTLASNQQRVLAHETSPTWVPLHNSLRFLDDGSILWSSERTGFQHLYRIDSKGKAAALTHGNWSVDELLAVDEKAGLAYFRAGIESARESQIYAVPLQGGQPQRLSKAPGMHSASFARNASVYVDSWSNNSTPPQIELFRANGEKIATLVENDLADPKHPYARYREAQRPVEFGTLTAADGKTPLNYSVIKPAGFDPAKRYPVAVYVYGGPASQTVTDSWPGRGDHLFNQYLAQQGYVVFSLDNRGTPRRGRDFGGALYGKQGTVEVADQLRGVAWLKQQPWVDPARIGVQGWSNGGYMTLMLLAKASDSYACGVAGAPVTDWGLYDSHYTERYMDLPARNDAGYREARVLTHIEGLRSPLLLIHGMADDNVLFTNSTSLMSALQKRGQPFELMTYPGAKHGLSGADALHRYRVAEAFLGRCLKP", "soluble on expression in E. coli": "soluble"}
{"sequence": "MRHLLDFQGWSRTEVESLLDTARVMREVLERPIKKVPALQGFTVATVFFEPSTRTRISFELAARRMSADVVSFAAQTSSLQKGESYKDTLLTLEAMGVDAYVIRADSAGVPHQATRWVKGAVINGGDGRRAHPTQALLDAYTLLEALGTLEGKKVAIVGDILHSRVARSGAELLSLLGAQVFCAGPPSLLPQSLPGAHLTPRLEEALEEADAVMVLRLQKERMEAGLVHLEDYVARYQVTEKRLALAKPQAPLLHPGPMNRDVELEGTLADSARSLVNRQVQNGVAVRMAALYHLLVGKEKA", "soluble on expression in E. coli": "soluble"}
{"sequence": "MRIFERYNPSKVAKYVKTLFRGRLYIKGVGAFEFDYGKILLPKKQDKQHLLVMSEVNRQVIRLQAEMGLEHHHHHH", "soluble on expression in E. coli": "not soluble"}
{"sequence": "MRISSLLFLTFLAGIVQAQDFLAMFKPFLGGGGGGGNPFANPQAIGGLFQQFAGGNGGGFGQLLAGAMAPKPAPAAAGPRSAPAPTNEDYNTDIDVPAPKAKARAAPTPRRAQGDDDDNIDMSLTRLG", "soluble on expression in E. coli": "not soluble"}
{"sequence": "MRIVVISLFLFSGVFGRASREAEKKQDTVACGELRDEYVRVCTGANTKRREQKDKDFCNAFENICFSIPEGEPDKAKDAEVTGPRTAAISPESAAAVRGETTGSAHKKTNFARFCKEFKNQYLYVCPDPFRFGQKAIVFCPVYSEKCHVPLPDKPVIPQRKSHRKRGPGGAVNQLCRSYQGFAMNYCNNPILTAQSQYRTACDKYWRFCGKFHQQG", "soluble on expression in E. coli": "not soluble"}
{"sequence": "MRIWIDADACPKAAKELVCKFALKRKLEVWMVAGQPQVKPPFACVRLVVVESGMDAADDYLVEQAEPGDLAICSDVPLADRLIKKQVAALDPRGREFDARNMGDKLAMRNLMADLRDQGQMGGGQAPYGERDRQAFANALDRLLTRLQREADLRASQPHR", "soluble on expression in E. coli": "not soluble"}
